B1: peptide HD2 (from tick evasin EVA4) / CCL19 (biotinylated, synthetic) (parent complex)
chain 1: EEDDYTAYAPLTCYFT
chain 2: GTNDAEDCCLSVTQKPIPGYIVRNFHYLLIKDGCRVPAVVFTTLRGRQLCAPPDQPWVERIIQRLQRTSAKMKRRSS
B2: peptide HD2 (from tick evasin EVA4) / CXCL13 (biotinylated, synthetic) (parent complex)
chain 1: EEDDYTAYAPLTCYFT
chain 2: VLEVYYTSLRCRCVQESSVFIPRRFIDRIQILPRGNGCPRKEIIVWKKNKSIVCVDPQAEWIQRMMEVLRKRSSSTLPVPVFKRKIP

Variants of: B1

| Variant | enrichment |
| --- | --- |
| chain 1 T6F | 2.62 log2 (difference from the parental peptide) |
| chain 1 T6N | -0.836 log2 (difference from the parental peptide) |
| chain 1 T6V | -2.16 log2 (difference from the parental peptide) |
| chain 1 T6A | -0.907 log2 (difference from the parental peptide) |
| chain 1 T6E | 1.9 log2 (difference from the parental peptide) |
| chain 1 T6I | -2.29 log2 (difference from the parental peptide) |
| chain 1 T6Q | -0.425 log2 (difference from the parental peptide) |
| chain 1 T6P | -4.5 log2 (difference from the parental peptide) |
| chain 1 D4Y | 0.0224 log2 (difference from the parental peptide) |
| chain 1 L11H | -5.81 log2 (difference from the parental peptide) |
| chain 1 L11F | -0.375 log2 (difference from the parental peptide) |
| chain 1 L11V | -0.0786 log2 (difference from the parental peptide) |
| chain 1 L11A | -6.47 log2 (difference from the parental peptide) |
| chain 1 T16V | 0.157 log2 (difference from the parental peptide) |
| chain 1 T16N | -5.68 log2 (difference from the parental peptide) |
| chain 1 T16I | 0.728 log2 (difference from the parental peptide) |
| chain 1 T16H | -3.46 log2 (difference from the parental peptide) |
| chain 1 F15G | -8.74 log2 (difference from the parental peptide) |
| chain 1 F15A | -5.34 log2 (difference from the parental peptide) |
| chain 1 F15S | -6.94 log2 (difference from the parental peptide) |

| Variant | enrichment |
| --- | --- |
| chain 1 F15D | -7.57 log2 (difference from the parental peptide) |
| chain 1 Y5H | -6.3 log2 (difference from the parental peptide) |
| chain 1 Y5T | -5.05 log2 (difference from the parental peptide) |
| chain 1 Y5D | -5.02 log2 (difference from the parental peptide) |
| chain 1 Y5L | -3.97 log2 (difference from the parental peptide) |
| chain 1 D3S | -8.53 log2 (difference from the parental peptide) |
| chain 1 D3P | -6.49 log2 (difference from the parental peptide) |
| chain 1 D3E | -0.508 log2 (difference from the parental peptide) |
| chain 1 D3V | -8.31 log2 (difference from the parental peptide) |
| chain 1 T12S | -6.54 log2 (difference from the parental peptide) |
| chain 1 T12K | -6.56 log2 (difference from the parental peptide) |
| chain 1 T12Y | 3.73 log2 (difference from the parental peptide) |
| chain 1 T12R | -3.3 log2 (difference from the parental peptide) |
| chain 1 T12N | -6.73 log2 (difference from the parental peptide) |
| chain 1 Y8V | -4.57 log2 (difference from the parental peptide) |
| chain 1 Y8L | -8.33 log2 (difference from the parental peptide) |
| chain 1 A7P | -4.29 log2 (difference from the parental peptide) |
| chain 1 A7I | 1.38 log2 (difference from the parental peptide) |
| chain 1 A7T | -0.798 log2 (difference from the parental peptide) |
| chain 1 A7R | -0.336 log2 (difference from the parental peptide) |

| Variant | enrichment |
| --- | --- |
| chain 1 A7F | 1.3 log2 (difference from the parental peptide) |
| chain 1 A7Q | 0.522 log2 (difference from the parental peptide) |
| chain 1 E2W | 3.67 log2 (difference from the parental peptide) |
| chain 1 E2A | -0.338 log2 (difference from the parental peptide) |
| chain 1 E2C | -4.17 log2 (difference from the parental peptide) |
| chain 1 Y14M | -7.94 log2 (difference from the parental peptide) |
| chain 1 Y14H | -4.96 log2 (difference from the parental peptide) |
| chain 1 Y14A | -9.01 log2 (difference from the parental peptide) |
| chain 1 Y14W | -2.78 log2 (difference from the parental peptide) |
| chain 1 Y14I | -6.25 log2 (difference from the parental peptide) |
| chain 1 E1W | 3.38 log2 (difference from the parental peptide) |
| chain 1 A9P | -3.61 log2 (difference from the parental peptide) |
| chain 1 A9V | -6.04 log2 (difference from the parental peptide) |
| chain 1 A9W | 2 log2 (difference from the parental peptide) |
| chain 1 A9E | -4.22 log2 (difference from the parental peptide) |
| chain 1 P10W | -2.06 log2 (difference from the parental peptide) |
| chain 1 C13L | -7.7 log2 (difference from the parental peptide) |
| chain 1 C13N | -2.93 log2 (difference from the parental peptide) |

Variants of: B2

| Variant | enrichment |
| --- | --- |
| chain 1 C13E | -6.71 log2 (difference from the parental peptide) |
| chain 1 C13V | -5.3 log2 (difference from the parental peptide) |
| chain 1 C13Y | -6.52 log2 (difference from the parental peptide) |
| chain 1 C13I | -4.63 log2 (difference from the parental peptide) |
| chain 1 F15Q | -6.18 log2 (difference from the parental peptide) |
| chain 1 F15Y | -0.776 log2 (difference from the parental peptide) |
| chain 1 F15A | -4.66 log2 (difference from the parental peptide) |
| chain 1 Y14W | -2.89 log2 (difference from the parental peptide) |
| chain 1 Y14T | -6.13 log2 (difference from the parental peptide) |
| chain 1 Y14M | -7.75 log2 (difference from the parental peptide) |
| chain 1 Y14V | -9.22 log2 (difference from the parental peptide) |
| chain 1 Y14F | -0.356 log2 (difference from the parental peptide) |
| chain 1 D3Y | -2.28 log2 (difference from the parental peptide) |
| chain 1 D3A | -5.8 log2 (difference from the parental peptide) |
| chain 1 D3G | -5.23 log2 (difference from the parental peptide) |
| chain 1 D3T | -4.07 log2 (difference from the parental peptide) |
| chain 1 D3W | -0.789 log2 (difference from the parental peptide) |
| chain 1 D3Q | -3.76 log2 (difference from the parental peptide) |
| chain 1 D3V | -5.31 log2 (difference from the parental peptide) |
| chain 1 L11T | -3.85 log2 (difference from the parental peptide) |
| chain 1 L11M | 3.77 log2 (difference from the parental peptide) |
| chain 1 L11R | -5.68 log2 (difference from the parental peptide) |
| chain 1 L11C | -5.19 log2 (difference from the parental peptide) |

| Variant | enrichment |
| --- | --- |
| chain 1 A7Y | 3.99 log2 (difference from the parental peptide) |
| chain 1 A7M | 3.01 log2 (difference from the parental peptide) |
| chain 1 A7F | 0.877 log2 (difference from the parental peptide) |
| chain 1 A7K | -1.87 log2 (difference from the parental peptide) |
| chain 1 A7I | 0.819 log2 (difference from the parental peptide) |
| chain 1 A7G | 1.15 log2 (difference from the parental peptide) |
| chain 1 A7V | 0.636 log2 (difference from the parental peptide) |
| chain 1 A7P | 1.36 log2 (difference from the parental peptide) |
| chain 1 A9V | -5.11 log2 (difference from the parental peptide) |
| chain 1 A9E | 1.61 log2 (difference from the parental peptide) |
| chain 1 A9N | -3.98 log2 (difference from the parental peptide) |
| chain 1 A9R | -4.49 log2 (difference from the parental peptide) |
| chain 1 A9F | -2.3 log2 (difference from the parental peptide) |
| chain 1 A9P | 2.11 log2 (difference from the parental peptide) |
| chain 1 A9T | -1.4 log2 (difference from the parental peptide) |
| chain 1 A9Q | -0.472 log2 (difference from the parental peptide) |
| chain 1 A9L | -0.527 log2 (difference from the parental peptide) |
| chain 1 Y8V | -4.22 log2 (difference from the parental peptide) |
| chain 1 Y8E | -1.96 log2 (difference from the parental peptide) |
| chain 1 Y8H | -6.35 log2 (difference from the parental peptide) |
| chain 1 Y8S | -4.52 log2 (difference from the parental peptide) |
| chain 1 Y8W | 2.6 log2 (difference from the parental peptide) |
| chain 1 Y8F | 0.328 log2 (difference from the parental peptide) |

| Variant | enrichment |
| --- | --- |
| chain 1 Y8I | -4.99 log2 (difference from the parental peptide) |
| chain 1 P10E | -2.35 log2 (difference from the parental peptide) |
| chain 1 P10A | -4.03 log2 (difference from the parental peptide) |
| chain 1 P10H | -5.73 log2 (difference from the parental peptide) |
| chain 1 P10W | -7.62 log2 (difference from the parental peptide) |
| chain 1 P10L | -9.28 log2 (difference from the parental peptide) |
| chain 1 P10V | -9.15 log2 (difference from the parental peptide) |
| chain 1 T16C | 0.44 log2 (difference from the parental peptide) |
| chain 1 T16I | -0.117 log2 (difference from the parental peptide) |
| chain 1 T16Y | -0.167 log2 (difference from the parental peptide) |
| chain 1 T16N | -0.837 log2 (difference from the parental peptide) |
| chain 1 T16A | 0.703 log2 (difference from the parental peptide) |
| chain 1 T16P | -0.922 log2 (difference from the parental peptide) |
| chain 1 T6F | 1.42 log2 (difference from the parental peptide) |
| chain 1 T6L | 1.48 log2 (difference from the parental peptide) |
| chain 1 T6I | -3.55 log2 (difference from the parental peptide) |
| chain 1 T6W | 5.97 log2 (difference from the parental peptide) |
| chain 1 T6Y | 3.32 log2 (difference from the parental peptide) |
| chain 1 T6S | 2.15 log2 (difference from the parental peptide) |
| chain 1 Y5V | -2.43 log2 (difference from the parental peptide) |
| chain 1 Y5I | -1.67 log2 (difference from the parental peptide) |
| chain 1 Y5W | 5.05 log2 (difference from the parental peptide) |
| chain 1 E2A | -1.7 log2 (difference from the parental peptide) |

| Variant | enrichment |
| --- | --- |
| chain 1 E2L | -1.53 log2 (difference from the parental peptide) |
| chain 1 E2N | -3.27 log2 (difference from the parental peptide) |
| chain 1 E2T | -3.42 log2 (difference from the parental peptide) |
| chain 1 E2P | -4.82 log2 (difference from the parental peptide) |
| chain 1 T12P | -5.86 log2 (difference from the parental peptide) |
| chain 1 T12Y | -0.431 log2 (difference from the parental peptide) |
| chain 1 T12Q | -3.59 log2 (difference from the parental peptide) |
| chain 1 T12C | -5.24 log2 (difference from the parental peptide) |
| chain 1 T12R | -8.86 log2 (difference from the parental peptide) |
| chain 1 T12W | -0.341 log2 (difference from the parental peptide) |
| chain 1 T12S | -6.76 log2 (difference from the parental peptide) |
| chain 1 E1V | -2.3 log2 (difference from the parental peptide) |
| chain 1 E1T | -1.65 log2 (difference from the parental peptide) |
| chain 1 E1A | -0.971 log2 (difference from the parental peptide) |
| chain 1 E1P | -3.73 log2 (difference from the parental peptide) |
| chain 1 E1I | -1.63 log2 (difference from the parental peptide) |
| chain 1 E1Q | -0.204 log2 (difference from the parental peptide) |
| chain 1 E1H | -3.17 log2 (difference from the parental peptide) |
| chain 1 D4V | -5.82 log2 (difference from the parental peptide) |
| chain 1 D4F | -4.23 log2 (difference from the parental peptide) |
| chain 1 D4W | -0.19 log2 (difference from the parental peptide) |
| chain 1 D4H | -5.54 log2 (difference from the parental peptide) |
| chain 1 D4N | -3.74 log2 (difference from the parental peptide) |

From PMC11969024 (2025)
